Experimental data: article PMC6842113

Biological target: PSD-95 PDZ1 mutant (ED6N) (UniProt P78352)
Test: ITC

Sequence of PSD-95 PDZ1 mutant (ED6N) (P78352 60-151, change not shown): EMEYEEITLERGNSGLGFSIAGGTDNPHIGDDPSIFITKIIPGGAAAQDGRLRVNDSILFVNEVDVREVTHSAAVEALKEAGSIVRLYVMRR

fold weakening of binding against PDZ1 WT: 8 fold
B1: Stg_CT WT (domain or fragment)
chain: DRHKQLRATARATDYLQASAITRIPSYRYRYQRRSRSSSRSTEPSHSRDASPVGVKGFNTLPSTEISMYTLSRDPLKAATTPTATYNSDRDNSFLQVHNCIQKDSKDSLHANTANRRTTPV
